Broadly, the Kd is the concentration at which binding is half-saturated. A lower Kd goes with higher affinity. Usually koff stands for the first-order rate constant of dissociation.

In patent US20210324068A1 (H LUNDBECK A S, published 2021) one finds Kd and koff data, which are given here for 1 molecule.

The target in this test is T1, Pituitary Adenylate Cyclase-Activating Polypeptide 38 (PACAP38) (Homo sapiens, not fully specified; C-terminal lysine is amidated; N-terminally or C-terminally biotinylated in the HTRF binding assay and N-terminally biotinylated in the PC-12 cell binding assay).
T1 construct: synthetic peptide (American Peptide; AnaSpec for biotinylated forms); also called human PACAP38; PACAP 1-38
T1 peptide: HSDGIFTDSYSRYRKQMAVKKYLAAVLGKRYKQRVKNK
Kind of test: SPR ProteOn, Ab immobilized.

B1: Ab22 (antibody, V domains shown)
VH: QEQLVESGGGLVQPEGSLTLTCTASGFDFSSNAMCWVRQAPGKGLEWIGSIYNADGKNYYAIWAKGRFTISRTSSTTVTLQMTSLTAADTATYFCARDFDLWGQGTLVTVSS
VL: AAVLTQTPSPVSAAVGGTVTINCQSSQSVYDNDWLAWFQQKPGQPPKLLIYLTSTLASGVPSRFSGSGSGTQFTLTISGVQCDDAATYYCLGGYDEDGDTHVFGGGTEVVVKR
In the case of B1, the Kd is 0.027 nM and the koff was 1e-05 s⁻¹.
